Data as given in patent US20080249008A1 (published 2008).

Key:
[1] = biological target: T1, EGFR on NR6 fibroblast cells (UniProt P00533 25-1210, limits assumed); assay: competition for binding to fibroblast cells, flow cytometry
T1 construct: whole, on cells; also called fibroblast cells expressing EGFR; NR6 fibroblasts
Description: (§1) Fluorescence intensity of cell surface labeling was measured by flow cytometry.

[2] = biological target: T1, EGFR on NR6 fibroblast cells; assay: competition with Alexa-488 labeled wt EGF on NR6 fibroblast cells, flow cytometry, 2 hr at 4 C
Description: as §1

B1: EGF mutant clone 121 (competitor on NR6 cells) (ligand)
chain: NSDPKCPLSHEGYCLNDGVCMYIGTLDRYACNCVVGYVGERCQYRDLKWLALR
IC50 [1]: 0.14 nM

B2: EGF mutant clone 30 (soluble) (ligand)
chain: SSNSGCPLSHDGYCLHDGVCMYIEALDRYACNCVVGYAGERCQYRDLKWWELR
notes: Produced solubly
Kd [2]: 0.56 nM
